Reference: US11123413B2, “Carbapenemases for use with antibiotics for the protection of the intestinal microbiome” (priority 2015, dated 2021)
Several values for one entry are separate records, joined by “and”; a condition that tells them apart may be missing. Equal entries are not always repeated.

B1: P2A: broad spectrum carbapenemase, class B metallo-enzyme requiring zinc, SEQ ID NO: 37; P2A-21 = product of strain SYT-PP0602-21 (protein)
chain: ETGTISISQLNKNVWVHTELGYFNGEAVPSNGLVLNTSKGLVLVDSSWDNKLTKELIEMVEKKFQKRVTDVIITHAHADRIGGITALKERGIKAHSTALTAELAKNSGYEEPLGDLQTITSLKFGNTKVETFYPGKGHTEDNIVVWLPQYQILAGGCLVKSAEAKDLGNVADAYVNEWSTSIENVLKRYGNINSVVPGHGEVGDKGLLLHTLDLLK
B2: NDM: New Delhi metallo-β-lactamase NDM-1; NDM-68 = product of strain STY-NP1602-68 (STII Δ35, N-terminal GQQMETG) (protein)
chain: GQQMETGDQRFGDLVFRQLAPNVWQHTSYLDMPGFGAVASNGLIVRDGGRVLVVDTAWTDDQTAQILNWIKQEINLPVALAVVTHAHQDKMGGMDALHAAGIATYANALSNQLAPQEGMVAAQHSLTFAANGWVEPATAPNFGPLKVFYPGPGHTSDNITVGIDGTDIAFGGCLIKDSKAKSLGNLGDADTEHYAASARAFGAAFPKASMIVMSHSAPDSRAAITHTARMADKLR

Key:
[1] = P2A concentration estimate and specific activity in cell lysates (CENTA assay, P2A protein standard); type: biochemical; details: BLR (DE3) P2A Clone 1 lysate, replicates 1 and 2
Method: To achieve an estimate of the amount of P2A protein in each of the lysates, dilutions of the lysates (5 ul, 2.5 ul, 1.3 ul, and 0.63 ul) were evaluated on SDS/PAGE compared to dilutions of a purified P2A standard protein (2.0 ug, 1.0 ug, 0.5 ug, 0.25 ug, 0.13 ug). Based on the P2A protein band intensities, an estimate of the amount of P2A protein in each of the lysates was obtained. The biological activity of the P2A protein in the cell lysates under the different lysing conditions was evaluated using the CENTA chromogenic assay compared to the biological activity of the P2A protein standard. The biological activity was normalized based on the P2A protein concentration estimate and an estimated P2A specific activity was obtained. […] The P2A expression cassette without the leader will be used for future studies.
Based on the P2A protein band intensities, an estimate of the amount of P2A protein in each of the lysates was obtained. The biological activity of the P2A protein in these cell lysates was evaluated using the CENTA chromogenic assay compared to the biological activity of the P2A protein standard. The biological activity was normalized based on the P2A protein concentration estimate and an estimated P2A specific activity was obtained.

[2] = Oral P2A and intravenous meropenem in jejunal-fistulated dogs; type: in vivo, laboratory beagles
Method: The ability of P2A to degrade meropenem in the dog intestinal tract was evaluated using laboratory beagles that had permanent jejunal fistulas. The fistulas allowed the repeated collection of jejunal chyme specimens from these animals. Dogs were treated with peroral P2A (1 mg/kg) in a liquid formulation (PBS buffer), and/or intravenous meropenem (30 mg/kg). Serum samples were collected and serum meropenem levels quantified. Jejunal chyme samples were collected and meropenem and P2A levels were quantified. Meropenem levels in serum and chyme were measured using a plate diffusion method using meropenem susceptible Micrococcus luteus TS504 as the test strain. P2A activity levels in chyme were determined spectrophotometrically using meropenem as a substrate. Meropenem hydrolysis was monitored at a wavelength of 297 nm.

[3] = NDM in dilutions of mixed human chyme with and without protease inhibitors (SDS-PAGE, CENTA); type: in vitro ADME; details: 30 minutes
Method: NDM activity was lost immediately upon incubation in the mixed human chyme (FIG. 24). To determine if the loss in activity was due to digestion by proteases present in the human chyme, purified NDM (100 ug/ml) was incubated for 30 minutes with dilutions of human mixed chyme ranging from 100% to 0% chyme in the absence or presence of a serine protease inhibitor cocktail (SigmaFAST protease inhibitors cocktail without EDTA (Sigma-Aldrich catalog number S8830). All incubations were performed in the presence of 100 μM ZnSO4 (final concentration). Samples removed at 30 minutes were transferred to lamelli sample buffer containing beta mercaptoethanol for analysis of protein degradation by gel electrophoreses and staining with coomassie blue. The remaining samples were snap frozen and used for evaluation of beta lactamase activity using a CENTA substrate (FIG. 25). […] In addition, most of the activity of NDM was retained at chyme dilutions of 3.13% or less (FIG. 25, panel A). In the presence of protease inhibitors, the majority of the NDM activity was retained at chyme dilutions of 50% or less.

[4] = Proteolytic cleavage of NDM in 2% human chyme or porcine pancreatic elastase, N-terminal sequencing of fragments; type: in vitro ADME; details: 500 ug/mL in 2% mixed human chyme
Method: The loss of NDM activity upon incubation with human chyme was due to the proteolytic cleavage of NDM by endogenous proteases present in human chyme. To map the cleavage sites within the NDM protein, NDM ([…]) was incubated with 2% mixed human chyme (human chyme diluted with incubation buffer, 20 mM Hepes pH 6.2; 150 mM NaCl, 100 uM ZnSO4) for times ranging from 0 to 180 minutes. Twenty microliters of each sample (1 ug) was removed and transferred to 20 μL of 2× denaturing sample buffer for a final concentration of 25 ng/μL. The samples were boiled and 10 μL (250 ng of NDM) was subjected to analysis by SDS-PAGE. NDM was rapidly degraded, in 0-15 minutes, into 5 distinct cleavage fragments (FIG. 26). […]
To map the proteolytic cleavage sites of the NDM fragments, NDM was incubated with 2% mixed human chyme as described for 0 or 15 minutes. […] The NDM digestions were analyzed by SDS/PAGE, the gel equilibrated in 1× Tris-Glycine transfer buffer and the proteins were transferred to an equilibrated Sequi-Blot PVDF membrane by wet transfer in Tris-glycine buffer. […] The isolated fragments were analyzed by N-terminal sequencing of the first 5 amino acids using a Perkin Elmer Applied Biosystems Model 494 Procise protein/peptide sequencer with an on-line Perkin Elmer Applied Biosystems Model 140C PTH Amino Acid Analyzer. […]

[5] = peak level in dog jejunum, meropenem 30 mg/kg IV + P2A 1 mg/kg PO, individual dogs
[6] = peroral P2A 1 mg/kg, intravenous meropenem 30 mg/kg

Row | Molecule | % Activity Compared to P2A standard ([1]; induction 18 o/n) | P2A-lactamase Activity ([1]; induction 18 o/n) | % Activity Compared to P2A standard ([1]; induction 25 on) | P2A-lactamase Activity ([1]; induction 25 on) | % Activity Compared to P2A standard ([1]; induction 37 3 hrs) | P2A-lactamase Activity ([1]; induction 37 3 hrs) | jejunal P2A concentration at which meropenem was not detected ([2]; intestinal samples, dogs) | Meropenem [2, 5] | P2A (U/g) [2, 5] | effect on serum levels of meropenem [2, 6] | meropenem in jejunal chyme [2, 6] | chyme dilution at which the majority of the activity was retained ([3]; in the presence of protease inhibitors) [%] | chyme dilution at which most of the activity was retained ([3]; without protease inhibitors) [%] | chyme dilution at which intact protein could be detected ([3]; without protease inhibitors, SDS-PAGE) [%] | time at which protein and fragments were undetectable [4] [min] | time of degradation into 5 distinct cleavage fragments [4] [min]
1 | B1 | 103% and 156% | 0.21 mg/mL and 0.16 mg/mL | 148% and 135% | 0.30 mg/mL and 0.27 mg/mL | 131% and 182% | 0.13 mg/mL and 0.18 mg/mL | at least 0.5 U/g | 0 ug/ml (2×) and 2.0 ug/ml | 0.5 U/g and 0.2 U/g and 80 U/g | does not reduce serum levels of meropenem | degraded meropenem |  |  |  |  | 
2 | B2 |  |  |  |  |  |  |  |  |  |  |  | ≤ 50 | ≤ 3.13 | ≤ 6.25 | 60 to 90 | 0 to 15
